Reference: article PMC11733253

Molecular target: MRAS wild type, recombinant from E. coli (human) (UniProt O14807)
Assay: ITC

BRAF-RBD (from UniProt P15056 150-233) (domain or fragment)
Kd: 8.3 µM
